What was measured:
[1] = molecular target: rhodamine-labeled MetJ (MetJ-A1C-rhodamine) (E. coli) (UniProt P0A8U6); experiment: AUC
AUC = molecular target: the molecule itself; experiment: AUC

| stoichiometry N [1] | Molecule | stoichiometry N (AUC) |
| --- | --- | --- |
| 2 | rhodamine-labeled MetJ (MetJ-A1C-rhodamine) (from UniProt P0A8U6 1-105) (natural protein) |  |
|  | unlabeled MetJ (methionine repressor protein) (natural protein, E. coli, UniProt P0A8U6 1-105, looked up) MAEWSGEYISPYAEHGKKSEQVKKITVSIPLKVLKILTDERTRRQVNNLRHATNSELLCEAFLHAFTGQPLPDDADLRKERSDEIPEAAKEIMREMGINPETWEY | 2 |
